According to publication PMC11996674, “Mechanism of mammalian transcriptional repression by noncoding RNA”:

Biological target: RNA polymerase II (12-subunit) (Sus scrofa (thymus), UniProt A0A8D1DPV6;A0A0B8RVL1;P19387;O15514;P19388;P61218;P62487;P52434;P60899;P62875;A0 …)
Assay: cryo-EM; alternative conformation, EMD-18376; FA: 5 mM HEPES-NaOH pH 7.25, 150 mM NaCl, 10 uM ZnCl2, 1 mM MgCl2, 1 mM DTT, 4 nM RNA, 30 C; EMSA: 20 mM HEPES-NaOH pH 7.25, 150 mM NaCl, 1 mM MgCl2, 5% glycerol, 40 ug/ml BSA, 1 mM DTT, 5 nM RNA, 30 C (gel 4 C)
Conditions: protein: native; copies: 1;1;1;1;1;1;1;1;1;1;1;1; folded; canonical and alternative conformations

B1: minimal Alu-RA (structured_RNA)
RNA: GAGGCAGGAGAAUGGCGUGAACCCGGGAGGUGGACGAGAUCGCUCCAGCCUGGGUGACAGAGCGAGACUCUGUCUC
**Q.** Does B1 bind?
**A.** Result: binds
